Experimental data published in patent publication US20230192878A1 (published 2023).

Biological target: T1, B-cell maturation antigen (BCMA) (human, UniProt Q02223 1-184)
T1 sequence (looked up): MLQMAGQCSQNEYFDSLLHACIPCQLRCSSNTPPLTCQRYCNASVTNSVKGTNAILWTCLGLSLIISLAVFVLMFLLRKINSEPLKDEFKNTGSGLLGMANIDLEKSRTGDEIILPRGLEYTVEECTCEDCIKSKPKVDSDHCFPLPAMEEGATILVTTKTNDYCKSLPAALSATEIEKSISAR
Test: cell-based or functional assay

B1: PF-06863135 (bispecific antibody, human IgG2)
heavy 1: EVQLVESGGGLVQPGGSLRLSCAASGFTFSDYYMTWVRQAPGKGLEWVAFIRNRARGYTSDHNPSVKGRFTISRDNAKNSLYLQMNSLRAEDTAVYYCARDRPSYYVLDYWGQGTTVTVSSASTKGPSVFPLAPCSRSTSESTAALGCLVKDYFPEPVTVSWNSGALTSGVHTFPAVLQSSGLYSLSSVVTVPSSNFGTQTYTCNVDHKPSNTKVDKTVERKCRVRCPRCPAPPVAGPSVFLFPPKPKDTLMISRTPEVTCVVVAVSHEDPEVQFNWYVDGVEVHNAKTKPREEQFNSTFRVVSVLTVVHQDWLNGKEYKCKVSNKGLPSSIEKTISKTKGQPREPQVYTLPPSREEMTKNQVSLTCLVKGFYPSDIAVEWESNGQPENNYKTTPPMLDSDGSFFLYSRLTVDKSRWQQGNVFSCSVMHEALHNHYTQKSLSLSPGK
light 1: not shown
heavy 2: EVQLLESGGGLVQPGGSLRLSCAASGFTFSSYPMSWVRQAPGKGLEWVSAIGGSGGSLPYADIVKGRFTISRDNSKNTLYLQMNSLRAEDTAVYYCARYWPMDIWGQGTLVTVSSASTKGPSVFPLAPCSRSTSESTAALGCLVKDYFPEPVTVSWNSGALTSGVHTFPAVLQSSGLYSLSSVVTVPSSNFGTQTYTCNVDHKPSNTKVDKTVERKCEVECPECPAPPVAGPSVFLFPPKPKDTLMISRTPEVTCVVVAVSHEDPEVQFNWYVDGVEVHNAKTKPREEQFNSTFRVVSVLTVVHQDWLNGKEYKCKVSNKGLPSSIEKTISKTKGQPREPQVYTLPPSREEMTKNQVSLTCEVKGFYPSDIAVEWESNGQPENNYKTTPPMLDSDGSFFLYSKLTVDKSRWQQGNVFSCSVMHEALHNHYTQKSLSLSPGK
light 2: EIVLTQSPGTLSLSPGERATLSCRASQSVSSSYLAWYQQKPGQAPRLLMYDASIRATGIPDRFSGSGSGTDFTLTISRLEPEDFAVYYCQQYQSWPLTFGQGTKVEIKRTVAAPSVFIFPPSDEQLKSGTASVVCLLNNFYPREAKVQWKVDNALQSGNSQESVTEQDSKDSTYSLSSTLTLSKADYEKHKVYACEVTHQGLSSPVTKSFNRGEC
- EC50 (nM) of cell viability, H929-Luc co-cultured with human CD3+ T cells, 72 hr, with GSI (nirogacestat): 0.0055 nM
- EC50 (nM) of cell viability, H929-Luc co-cultured with human CD3+ T cells, 72 hr, without GSI: 0.167 nM
- EC50 (nM) of cell viability, Molp8-Luc co-cultured with human CD3+ T cells, 72 hr, with GSI (nirogacestat): 0.0202 nM
- EC50 (nM) of cell viability, Molp8-Luc co-cultured with human CD3+ T cells, 72 hr, without GSI: 0.108 nM
- EC50 (nM) of cell viability, OPM2-Luc co-cultured with human CD3+ T cells, 72 hr, with GSI (nirogacestat): 0.0033 nM
- EC50 (nM) of cell viability, OPM2-Luc co-cultured with human CD3+ T cells, 72 hr, without GSI: 0.0528 nM
- EC50 (nM) of cell viability, RPMI8226-Luc co-cultured with human CD3+ T cells, 72 hr, with GSI (nirogacestat): 0.0017 nM
- EC50 (nM) of cell viability, RPMI8226-Luc co-cultured with human CD3+ T cells, 72 hr, without GSI: 0.0092 nM
